Experiment [1] has as its target calcineurin (CNA/B) (UniProt Q08209). Briefly: ITC. Background: In ITC the heat of successive injections is recorded.
For experiment [2], the target named is pre-formed RCAN1^128-164:calcineurin complex, Q08209. Briefly: ITC, peptide titrated into the pre-formed RCAN1^128-164:calcineurin complex.

Turning to “RCAN1^128-192 (from UniProt P53805 183-247)”, in experiment [1], the Kd was determined as 300 nM.
In the case of “RCAN1 mutant PSVVVH (SEQ ID NO: 13) →ASAVAA (SEQ ID NO: 18) (from UniProt P53805 56-252)”, the fold decrease in Kd (against unmutated RCAN1) in experiment [1] came to 220 fold.
For the molecule “RCAN1 construct with the PxIxIT (SEQ ID NO: 9) motif deleted”, the fold decrease in binding affinity in experiment [1] is 220 fold.
Turning to “RCAN1^89-197 (from UniProt O35847 89-142)”, the Kd in experiment [1] is 10 nM.
Turning to “RCAN1 mutant HLAPP (SEQ ID NO: 16) →AAAAA (SEQ ID NO: 17) (from UniProt P53805 56-252)”, in experiment [1], the fold decrease in Kd (against unmutated RCAN1) amounted to 2.5 fold.

B1: peptide consisting of RCAN1^178-192 that includes the TxxP (SEQ ID NO: 11) site (peptide)
peptide: RPKPKIIQTRRPEYT
modifications: not checked
As for B1, the Kd in experiment [2] was found to be 15000 nM.

Usually Kd stands for the equilibrium constant for the complex coming apart.
